Experimental data: patent US20210381026A1

Molecular target: GFP [GFP: P42212]
Test: sandwich cD-IPCR: GFP in buffer captured by anti-GFP pAb on plate, bound cDNA display quantified by qPCR (ΔCt)

Sequence of cDNA display presenting anti-GFP VHH (LaG-16) (VHH): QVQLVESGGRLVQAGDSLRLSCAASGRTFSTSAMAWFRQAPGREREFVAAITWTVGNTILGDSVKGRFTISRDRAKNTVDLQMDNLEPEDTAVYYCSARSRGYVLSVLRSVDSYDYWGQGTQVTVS

Substance “cDNA display presenting anti-GFP VHH (LaG-16)” has a lowest detected GFP concentration (sandwich cD-IPCR) of 10 ng/mL.
